Measurements reported in the supplement of paper PMC10126150.
± gives the standard deviation of the averaged measurements.

Tested on: ATP
Experiment: switch fluorescence ratio, 500 uM ATP over buffer (Cy3 cluster intensity, sum of 5 cycles each) (fold (ratio)); higher = stronger signal-on switching upon ATP binding; sequences stand for … in TCGTCGGCAGCGTCAGATGTGTATAAGAGACAGTTTTTTTTTTTTTTTTTTTTTTTTT…TC
Conditions: aptamer strand: ATP DNA aptamer (quencher-CACCTGGGGGAGTATTGCGGAGGAAGG + anchor), 100 nM annealed; ATP concentration: 500 uM
How it was run: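 Switching-strand clusters labelled with Cy3 on a modified Illumina MiSeq flow-cell were annealed to 100 nM quencher-labelled ATP aptamer, imaged in selection buffer, and re-imaged after 15 min with 500 uM ATP at 22 °C. This was done over five cycles with NaOH stripping and re-annealing in between. The fluorescence ratio is summed target-cycle over summed buffer-cycle Cy3 intensity per cluster, averaged per switch-domain sequence, excluding clusters outside 100-1000 RFU.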
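Note: ATP exposure 15 min at 22 °C before imaging.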

Sequence | switch fluorescence ratio
GGAGGATACG | 1.02 ± 0.025
GCTTTTTATA | 1.02 ± 0.027
TAGGTCATGG | 0.985 ± 0.011
GTGTTTTTGA | 1.01 ± 0.034
CGTGACAAGA | 0.986 ± 0.056
TGCATGGGCT | 1.05 ± 0.12
TACCGTGTCC | 1.11 ± 0.06
GCGGTTTCGT | 0.983 ± 0.012
ATAGGTATGT | 0.998 ± 0.023
AGCCTTTTTT | 0.982 ± 0.011
TGCTCCTTTT | 1 ± 0.034
TTACACGATA | 1.32 ± 0.15
GAAAAGGGT | 1.08 ± 0.065
GGGCTATATT | 0.9904 ± 0.0084
TTAGAGGCGT | 1.006 ± 0.0053
GAGTTGGAAG | 1.009 ± 0.0071
GAGCATTTCC | 1.1 ± 0.043
TTGAGATCGG | 1.01 ± 0.05
GGGTTGACTT | 1.015 ± 0.0018
CGTACGGGTG | 1 ± 0.014
AAAAACGTAT | 1.03 ± 0.04
TTAATCGTTA | 1.01 ± 0.011
AGGGGAAAAC | 1.03 ± 0.044
TGGCTCTCAT | 1.02 ± 0.017
AGGATGTTGG | 0.993 ± 0.026

Sequence | switch fluorescence ratio
ATGTCGTCTC | 1.003 ± 0.0091
TTCTTTGAAT | 1.036 ± 0.0013
TCATACGGGG | 1.01 ± 0.023
ATTTAGAGGT | 0.965 ± 0.043
GCGCATCATT | 0.986 ± 0.025
AATTTTAAAT | 1.09 ± 0.21
TTTGGAAGTT | 0.9817 ± 0.0035
TGGGCTCTGT | 0.978 ± 0.044
TTATGAGTTT | 0.988 ± 0.036
CCTGGGGCTT | 1.03 ± 0.033
GGGAGTGGGT | 0.99 ± 0.024
GTTTCACGGT | 1.003 ± 0.0079
ACATGGAGAG | 0.985 ± 0.052
TTAGATGCGG | 1.013 ± 0.01
TGACGTTAAA | 1.04 ± 0.067
AAGGCAGGTT | 1.021 ± 0.0068
TTAGAGACTG | 1.08 ± 0.11
TTGGACTAAA | 1.06 ± 0.011
TTCTATATGT | 0.977 ± 0.027
TCCGCCATGG | 2.71 ± 0.28
TGCGGTTAGC | 1.004 ± 0.006
TCAGGTTAGT | 1.02 ± 0.022
TGGGGCGGGT | 1.02 ± 0.017
ATGTGGGGTA | 0.985 ± 0.026
ATTGGGCAAT | 1.054 ± 0.0023

Sequence | switch fluorescence ratio
ATGATATGGT | 0.983 ± 0.029
GGGGGCGGAC | 0.974 ± 0.097
CCCCACTTGC | 1.32 ± 0.11
TCGTACGTTT | 1.04 ± 0.021
TTAGTGCTCC | 1.039 ± 0.0018
CCTGCGCACG | 3.98 ± 0.93
GGGACAGGCG | 0.991 ± 0.095
AGGAGAAGAC | 1.03 ± 0.049
CGAGTTGTTT | 1 ± 0.03
GAGGTAATGT | 1.039 ± 0.0025
ATTGGGAATA | 0.986 ± 0.029
GTTCAGGGGA | 1.27 ± 0.41
TGGGGTCGTG | 0.964 ± 0.022
CGTGGTGCTC | 1.07 ± 0.043
TTTTTAGGCC | 0.999 ± 0.016
CTTGGGGGCT | 1.002 ± 0.0097
GGATGCGGGT | 1 ± 0.03
TTTTAATCAG | 0.9842 ± 0.0036
GCGTGTTTTT | 1.04 ± 0.013
TGTTGTGGGT | 1.002 ± 0.0063
CAAGTAATTG | 1.025 ± 0.0088
ATCCCCATGG | 1.91 ± 0.051
AAAGGGAGAT | 1.027 ± 0.0085
ATTTGTGGTG | 1.01 ± 0.023
AGGAATGAGG | 0.958 ± 0.011

Sequence | switch fluorescence ratio
TTGGTGCATG | 1.01 ± 0.04
GCTCGCGTGG | 0.956 ± 0.025
GGAAGGAGGG | 1 ± 0.033
TCTTTGATTA | 1.01 ± 0.042
TCAGGTAATG | 0.98 ± 0.033
CCGTGGTAGG | 1.01 ± 0.018
AAAGCAGGTA | 0.989 ± 0.029
GGATTAAAGC | 0.998 ± 0.022
CGTAACCCGT | 0.98 ± 0.033
ATGGAATTGT | 0.986 ± 0.022
TAAGCGGGGT | 1.012 ± 0.008
GCTTCGGATC | 1.22 ± 0.038
TCTTGTGCAT | 1.05 ± 0.03
GGCGTTCTTG | 0.962 ± 0.015
GTGGGGTGTT | 0.985 ± 0.02
CATGGGGTCT | 1.03 ± 0.05
ATCATTAGAA | 0.976 ± 0.031
GGGAAATGTT | 1.06 ± 0.016
CTGTGTAGCT | 1.02 ± 0.024
GTTTGCTATT | 0.992 ± 0.032
CTGGTTACGG | 1.01 ± 0.015
ACATAATTGA | 1.03 ± 0.017
CGGAGTTACA | 1.068 ± 0.0072
TAAAGGCGCG | 0.985 ± 0.012
CTACGAAGGG | 1.04 ± 0.021

Sequence | switch fluorescence ratio
TTTGGATATA | 0.9726 ± 0.0041
GTCTTTAAGG | 0.964 ± 0.036
CGGTGCCGGT | 0.9841 ± 0.0091
TAGGCTGATA | 1.01 ± 0.029
TTTAAACGTA | 0.983 ± 0.033
CCTGAGGGGA | 1.16 ± 0.2
GAACATTTTT | 1.03 ± 0.021
CGTATCTAGG | 0.98 ± 0.021
TTGGGGGTCC | 1.02 ± 0.038
GGCTGAGTTA | 1.021 ± 0.0025
GGACCCAATG | 0.986 ± 0.011
TAAGTATGTC | 0.995 ± 0.01
TAGAATCGGG | 0.9758 ± 0.0078
CTCTTAGTTT | 0.999 ± 0.023
TTTTTCTGCT | 0.9786 ± 0.0051
CTTGTTCTTA | 0.996 ± 0.024
GGGTGAAGAT | 1.011 ± 0.0088
TTGACGCAGT | 1.23 ± 0.03
CGTTTAGGGG | 0.9766 ± 0.0063
TAGGGCGCCG | 1.0192 ± 0.00067
CGCGATTATT | 1.09 ± 0.04
TTGCTGGCGG | 1 ± 0.038
TCAGGCCCGT | 1.01 ± 0.026
AGGTGGAAAC | 1.01 ± 0.048
AGTTGAACCA | 1 ± 0.012

Sequence | switch fluorescence ratio
GGGGTATTTT | 0.997 ± 0.023
TTTGCACTTT | 1 ± 0.046
TTAGAAACGC | 1.02 ± 0.04
AGGGTGGAAA | 1.02 ± 0.019
TCTTTGGTCG | 1.02 ± 0.12
TTGCTTCAAT | 0.983 ± 0.045
CGGCAGCGGG | 1.03 ± 0.013
AATCGTCATC | 0.991 ± 0.016
CAGTTACACG | 0.995 ± 0.023
CAAAAAATTA | 1.01 ± 0.031
AAAGTTGCAG | 1.02 ± 0.023
TTGAACGAGA | 0.998 ± 0.019
GGGGGGGGAG | 1.01 ± 0.03
AAAATGGTAA | 1.001 ± 0.0057
TTGGGGAATT | 1 ± 0.019
TCAGGTAGTG | 0.9875 ± 0.0078
CATATAGGGC | 0.985 ± 0.02
ACAAACCACC | 1.34 ± 0.057
GCGTAGGTGT | 1.09 ± 0.033
GCTTTTAAAG | 1.04 ± 0.02
GAATCCGGTT | 0.989 ± 0.019
GGTTTACGGC | 1 ± 0.016
TATAGTTGTT | 0.992 ± 0.018
ACGGGGAGGG | 1.04 ± 0.037
GGGTATAATA | 1.01 ± 0.014

Sequence | switch fluorescence ratio
TATCCTTAGG | 1.01 ± 0.059
GATTAACGTT | 0.971 ± 0.036
TTTCATTTTA | 0.9881 ± 0.0064
GGGGAGGTGT | 1.05 ± 0.066
TTGACGTATT | 0.9874 ± 0.006
CTGTTGTTTG | 0.9784 ± 0.0016
TTGGCCGGGG | 1.01 ± 0.029
CGGGGGTTCG | 1.05 ± 0.057
CACTAAGTGG | 1.025 ± 0.0023
TCGCTACTCG | 3.07 ± 0.62
GGATACGGGC | 1.02 ± 0.079
AAAATAGGGG | 1.04 ± 0.044
TACAGCTTTT | 1.01 ± 0.031
AGGGGGTCAG | 0.986 ± 0.027
AAAGGTCTGG | 0.9794 ± 0.0049
GTATGATTGT | 0.994 ± 0.027
TTAAAATATA | 0.984 ± 0.059
TGTGTGTTGA | 1.023 ± 0.0026
AGAGAGATGG | 0.977 ± 0.018
TGCTGACCGA | 1.04 ± 0.035
AATGGGTGAA | 0.97511 ± 0.00091
GATGGCATAA | 1.01 ± 0.025
ACCAGCCTGG | 1.01 ± 0.025
TGAGAGGAGG | 1 ± 0.028
GAAATTAGAT | 1.003 ± 0.0098

Sequence | switch fluorescence ratio
AAAATTTGGT | 1.04 ± 0.029
GGCCCGGGGC | 0.995 ± 0.017
CTAGGGCATG | 0.98 ± 0.016
GCTGGGGAAG | 1.02 ± 0.019
CGGGGTAAGT | 1.01 ± 0.021
ACGGCGGGGG | 1.15 ± 0.25
GCCGGAGGGG | 1.26 ± 0.39
AAGGAGAGCT | 1.01 ± 0.054
TTGGGGGACT | 1.01 ± 0.042
ATGTATATAG | 0.978 ± 0.012
ATGGTTAGTG | 0.975 ± 0.011
TGAGGCTATG | 1 ± 0.021
TTTGCGAGCG | 1.01 ± 0.023
GCTTTACTCA | 1.36 ± 0.049
GGCTAGGGGA | 1.13 ± 0.21
TTCTTTTCTT | 1.02 ± 0.047
CATTGCTATT | 1.02 ± 0.017
GAAATGAATA | 1 ± 0.011
CAGTTGCTGA | 0.999 ± 0.011
TGGCTGTTGA | 1.01 ± 0.018
GGATTTCCAG | 0.999 ± 0.03
AGGTGTAGCA | 1.02 ± 0.051
CCCAATTTTG | 1.05 ± 0.069
CGGGTGATTC | 1.04 ± 0.021
TAACGGGGCG | 1.01 ± 0.049
